Test results reported in publication PMC2722759 (Nature cell biology, 2008).
Where two headings read alike, the source gives them in different places.

What was measured:
Test in all cases: SPR
[1] = target: Fc-tagged sFRP2 Fzl domain (mouse)
FLAG-tagged BMP1 [2] = target: T1, FLAG-tagged BMP1 (human, UniProt P13497-2 23-730)
T1 sequence (looked up): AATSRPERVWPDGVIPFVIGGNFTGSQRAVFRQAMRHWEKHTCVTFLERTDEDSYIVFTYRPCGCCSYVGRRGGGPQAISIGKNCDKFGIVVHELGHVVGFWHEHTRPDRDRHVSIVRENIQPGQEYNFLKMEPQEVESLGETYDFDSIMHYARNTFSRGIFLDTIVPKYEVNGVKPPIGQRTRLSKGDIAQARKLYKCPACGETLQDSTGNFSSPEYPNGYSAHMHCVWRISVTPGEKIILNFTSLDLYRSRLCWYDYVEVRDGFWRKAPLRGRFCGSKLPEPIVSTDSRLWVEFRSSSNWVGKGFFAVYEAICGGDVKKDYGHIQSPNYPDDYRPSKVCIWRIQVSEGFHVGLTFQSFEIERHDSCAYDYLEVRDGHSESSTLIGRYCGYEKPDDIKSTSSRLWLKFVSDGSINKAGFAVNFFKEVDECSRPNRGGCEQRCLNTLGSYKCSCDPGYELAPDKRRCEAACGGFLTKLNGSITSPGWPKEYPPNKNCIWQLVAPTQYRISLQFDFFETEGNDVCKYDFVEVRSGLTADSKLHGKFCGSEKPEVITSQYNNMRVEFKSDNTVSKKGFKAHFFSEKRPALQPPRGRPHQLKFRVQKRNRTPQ

FLAG-tagged BMP1 [3] = target: T1, FLAG-tagged BMP1; remark: listed apart in the source

FLAG-tagged BMP1 (from UniProt P13497-2 23-730) (enzyme)
Kd [1]: 8.68 nM

B1: His-tagged sFRP2 (natural protein, mouse, UniProt P97299 25-295, looked up)
chain: LFLFGQPDFSYKRSNCKPIPANLQLCHGIEYQNMRLPNLLGHETMKEVLEQAGAWIPLVMKQCHPDTKKFLCSLFAPVCLDDLDETIQPCHSLCVQVKDRCAPVMSAFGFPWPDMLECDRFPQDNDLCIPLASSDHLLPATEEAPKVCEACKTKNEDDNDIMETLCKNDFALKIKVKEITYINRDTKIILETKSKTIYKLNGVSERDLKKSVLWLKDSLQCTCEEMNDINAPYLVMGQKQGGELVITSVKRWQKGQREFKRISRSIRKLQC
Kd (FLAG-tagged BMP1 [2]): 7.13 nM

B2: full-length sFRP2-Fc (Fc fusion, mouse, UniProt P97299 25-295, looked up)
chain: B1 chain
Kd (FLAG-tagged BMP1 [3]): ~6.01 nM
